Results published in patent US20070087405.

Molecular target: β subunit of human prolyl 4-hydroxylase, P07237
Sequence (P07237 18-508): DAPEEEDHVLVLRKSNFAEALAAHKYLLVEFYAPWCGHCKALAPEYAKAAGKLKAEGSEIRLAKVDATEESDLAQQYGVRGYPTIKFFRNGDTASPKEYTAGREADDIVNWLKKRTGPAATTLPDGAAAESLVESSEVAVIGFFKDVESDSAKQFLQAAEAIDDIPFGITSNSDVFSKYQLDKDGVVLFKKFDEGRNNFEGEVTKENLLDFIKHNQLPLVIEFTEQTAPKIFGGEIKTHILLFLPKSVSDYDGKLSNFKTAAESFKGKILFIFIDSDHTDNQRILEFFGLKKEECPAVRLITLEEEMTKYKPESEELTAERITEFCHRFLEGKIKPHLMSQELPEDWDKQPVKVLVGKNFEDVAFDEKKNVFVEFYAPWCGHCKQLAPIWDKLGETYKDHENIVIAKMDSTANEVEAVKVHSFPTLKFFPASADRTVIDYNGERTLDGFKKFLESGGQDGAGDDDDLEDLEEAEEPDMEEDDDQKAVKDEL

B1: α subunit of human prolyl 4-hydroxylase (protein)
chain: HPGFFTSIGQMTDLIHTEKDLVTSLKDYIKAEEDKLEQIKKWAEKLDRLTSTATKDPEGFVGHPVNAFKLMKRLNTEWSELENLVLKDMSDGFISNLTIQRQYFPNDEDQVGAAKALLRLQDTYNLDTDTISKGNLPGVKHKSFLTAEDCFELGKVAYTEADYYHTELWMEQALRQLDEGEISTIDKVSVLDYLSYAVYQQGDLDKALLLTKKLLELDPEHQRANGNLKYFEYIMAKEKDVNKSASDDQSDQKTTPKKKGVAVDYLPERQKYEMLCRGEGIKMTPRRQKKLFCRYHDGNRNPKFILAPAKQEDEWDKPRIIRFHDIISDAEIEIVKDLAKPRLRRATISNPITGDLETVHYRISKSAWLSGYENPVVSRINMRIQDLTGLDVSTAEELQVANYGVGGQYEPHFDFARKDEPDAFKELGTGNRIATWLFYMSDVSAGGATVFPEVGASVWPKKGTAVFWYNLFASGEGDYSTRHAACPVLVGNKWVSNKWLHERGQEFRRPCTLSELE
prolyl 4-hydroxylase activity (decarboxylation of 2-oxo[1-14C]glutarate) and trimeric assembly of mC21: These data suggest that the P4α and P4β are capable of assembling into an active α2β2 tetramer in the Drosophila expression system
